The target in one test is human c-Ret (human, UniProt P07949 29-1114, phosphorylation at Y1016 is the readout). Put plainly: cell-based or functional assay.
The target of test [1] is T1, Recombinant Human GFRα-1/GDNF Rα-1 Fc Chimera (human, UniProt P56159 25-429).
T1 construct: Purchased Fc chimera; It was captured on protein A in Biacore and coated on the plate in ELISA; also called GFRα1-Fc; recombinant human GFRα1-Fc chimera, carrier-free; not shown: Fc part of a purchased Fc chimera
T1 sequence (looked up): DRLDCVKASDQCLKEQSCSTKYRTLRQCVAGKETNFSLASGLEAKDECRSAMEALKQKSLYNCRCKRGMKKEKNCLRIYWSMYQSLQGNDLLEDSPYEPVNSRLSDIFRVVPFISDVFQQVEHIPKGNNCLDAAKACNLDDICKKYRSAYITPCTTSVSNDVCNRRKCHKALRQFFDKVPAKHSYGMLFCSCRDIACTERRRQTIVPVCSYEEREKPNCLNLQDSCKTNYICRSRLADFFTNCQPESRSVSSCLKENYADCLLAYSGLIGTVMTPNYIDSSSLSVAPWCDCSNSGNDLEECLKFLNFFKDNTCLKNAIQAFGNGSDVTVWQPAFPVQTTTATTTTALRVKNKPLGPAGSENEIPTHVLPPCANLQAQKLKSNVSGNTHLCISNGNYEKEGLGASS
Put plainly: ELISA, plate-bound human GFRα1-Fc; 4 C sample. As for the experimental part:
GDNF wild type and variants are tested in an ELISA assay, in which binding of the GDNF proteins to the plate-bound receptor (GFRα1) is measured. A “no GDNF” condition and/or an “irrelevant protein” condition are used as negative controls.
Each well of a 96-well plate (Greiner 655081 Immunobind ELISA plates) is coated with 70 μl of human GFRα1 (recombinant human GFRα1-Fc chimera, carrier-free) at 1 μg/ml in carbonate buffer, pH 9.6. If an irrelevant receptor is coated, it is an irrelevant Fc chimera and is coated at the same concentration as GFRα1. The plates are sealed and incubated at 4° C. overnight. The wells are aspirated and washed twice with washing buffer (20 mM Tris (hydroxymethyl) aminomethane, pH 7.4, 0.15 M NaCl, 0.1% Tween-20), using an automatic plate washer. The plates are blocked with 200 μl blocking buffer per well (3% Carnation Instant milk in the above washing buffer) for at least 1 hour at room temperature. Plates are washed twice with washing buffer.
GDNF proteins are serially diluted into blocking buffer at an appropriate concentration range, typically beginning at 5 μg/ml and serially diluting 1:10. A no GDNF control is used, which consists of blocking buffer alone. 50 μl of each GDNF solution is added to the GFRα1 coated wells in triplicate. The plates are incubated for 1.5 hours at room temperature. The wells are then washed 3 times with washing buffer.
On the technique in general: ELISA stands for enzyme-linked immunosorbent assay.

The target of test [2] is T1, Recombinant Human GFRα-1/GDNF Rα-1 Fc …. Put plainly: SPR (Biacore 2000), GFRα1-Fc captured on protein A, GDNFv as analyte, 1:1 Langmuir, 25 C. As for the experimental part:
(§1) A Biacore® 2000 instrument is used to measure the binding kinetics of GDNFv to human and rat GDNF family receptors (GFRα1 and GFRα2). Measurements are performed at 25° C. Samples are dissolved in HBS-EP buffer (150 mM sodium chloride, 3 mM EDTA, 0.005% (w/v) surfactant P-20, pH 7.4). Protein A, Staphylococcus aureus is immobilized on flow cells 1 to 4 of a CM4 sensor chip (GE Healthcare #BR-1005-39) at a level of ˜200 response units (RUs) using amine coupling chemistry to capture GFR Fc chimera (Recombinant Human GFRα-1/GDNF Rα-1 Fc Chimera; Recombinant Human GFRα-2/GDNF Rα-2 Fc Chimera; Recombinant Rat GFRα-1/GDNF Rα-1 Fc Chimera; Recombinant Mouse GFRα-2/GDNF Rα-2 Fc Chimera).
(§2) Binding is evaluated using multiple cycles. Each cycle consists of the following steps: 1) injection of about 10 μL of GFR at a concentration of ˜1.0 μg/mL and a flow rate of 10 μL/min., aiming at a capture of 120-150 RUs; 2) injection of 250 μL of GDNFv at a flow rate of 50 μL/min., in a final concentration rage between 10 nM and 0.04 nM followed by […]. for dissociation; and 3) regeneration using about 30 μL of 10 mM glycine hydrochloride, pH 1.5. Association and dissociation rates for each cycle are evaluated using a “1:1 (Langmuir) binding” model in the BIAevaluation software, version 4.1.
(In general: SPR reads the build-up and loss of mass on a sensor chip optically.)

The target of test [3] is T2, Recombinant Rat GFRα-1/GDNF Rα-1 Fc Chimera (rat, UniProt Q62997 25-445).
T2 construct: Purchased Fc chimera; not shown: Fc part of a purchased Fc chimera
T2 sequence (looked up): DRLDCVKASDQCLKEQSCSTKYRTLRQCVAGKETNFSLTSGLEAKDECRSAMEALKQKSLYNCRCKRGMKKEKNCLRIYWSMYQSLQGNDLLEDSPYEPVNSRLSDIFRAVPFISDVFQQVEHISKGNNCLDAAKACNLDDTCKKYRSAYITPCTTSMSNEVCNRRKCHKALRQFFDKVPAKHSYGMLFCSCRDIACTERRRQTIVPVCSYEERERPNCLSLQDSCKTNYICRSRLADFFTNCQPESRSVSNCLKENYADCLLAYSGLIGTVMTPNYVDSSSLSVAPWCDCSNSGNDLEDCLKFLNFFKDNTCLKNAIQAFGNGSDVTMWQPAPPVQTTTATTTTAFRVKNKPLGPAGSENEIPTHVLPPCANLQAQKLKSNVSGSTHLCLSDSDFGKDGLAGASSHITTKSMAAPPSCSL
The test can be described thus: SPR (Biacore 2000), rat GFRα1-Fc captured on protein A, GDNFv as analyte, 1:1 Langmuir, 25 C. As for the experimental part: as §1, §2

Substitutions are numbered along the chain they refer to. Names and notes keep the numbering of the source.

Chain of human c-Ret (P07949 29-1114): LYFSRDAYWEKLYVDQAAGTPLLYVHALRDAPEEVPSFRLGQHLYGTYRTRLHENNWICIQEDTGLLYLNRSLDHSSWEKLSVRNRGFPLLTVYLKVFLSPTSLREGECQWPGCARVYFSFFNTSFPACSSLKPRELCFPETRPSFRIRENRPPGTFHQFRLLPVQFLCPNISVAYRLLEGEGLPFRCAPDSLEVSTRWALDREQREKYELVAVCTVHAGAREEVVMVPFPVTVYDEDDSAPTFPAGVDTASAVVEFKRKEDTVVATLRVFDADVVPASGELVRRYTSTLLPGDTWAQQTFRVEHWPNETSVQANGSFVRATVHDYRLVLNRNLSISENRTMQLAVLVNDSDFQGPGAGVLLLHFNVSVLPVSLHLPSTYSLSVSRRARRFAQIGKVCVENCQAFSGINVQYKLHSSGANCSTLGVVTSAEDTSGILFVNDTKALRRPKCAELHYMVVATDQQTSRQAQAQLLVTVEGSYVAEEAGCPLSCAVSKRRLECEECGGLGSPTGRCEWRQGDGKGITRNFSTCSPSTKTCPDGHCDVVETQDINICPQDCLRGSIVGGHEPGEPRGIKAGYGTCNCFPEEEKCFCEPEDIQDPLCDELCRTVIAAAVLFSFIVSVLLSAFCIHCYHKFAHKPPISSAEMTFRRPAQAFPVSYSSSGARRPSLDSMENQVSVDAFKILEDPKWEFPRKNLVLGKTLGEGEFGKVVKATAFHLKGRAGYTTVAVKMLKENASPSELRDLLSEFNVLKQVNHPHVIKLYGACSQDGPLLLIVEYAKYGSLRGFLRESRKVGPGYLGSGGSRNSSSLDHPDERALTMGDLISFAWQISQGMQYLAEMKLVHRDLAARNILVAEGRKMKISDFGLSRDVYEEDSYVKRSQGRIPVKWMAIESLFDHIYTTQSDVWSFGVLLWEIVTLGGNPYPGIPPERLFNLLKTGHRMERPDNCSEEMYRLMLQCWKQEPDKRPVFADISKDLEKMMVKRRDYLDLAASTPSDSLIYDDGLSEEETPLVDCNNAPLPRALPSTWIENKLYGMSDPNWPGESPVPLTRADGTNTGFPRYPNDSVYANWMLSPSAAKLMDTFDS

B1: CHO-Δ31-GDNF (SEQ ID NO: 8) (ligand)
chain: RGQRGKNRGCVLTAIHLNVTDLGLGYETKEELIFRYCSGSCDAAETTYDKILKNLSRNRRLVSDKVGQACCRPIAFDDDLSFLDDNLVYHILRKHSAKRCGCI
modifications: N-glycosylated at N49 (numbering of mature GDNF)
notes: Expressed in CHO cells; also called CHO-Δ31-GDNFv; WT CHO Δ31-GDNFv
Usually EC50 stands for the midpoint of the concentration-response curve. In general, Kd refers to the free concentration of one partner at which half of the binding sites on the other are occupied at equilibrium, for simple one-to-one binding. As usually defined, the koff is the first-order rate constant of dissociation. One may read the kon as a measure of how fast the partners come together. B1: the “c-Ret phosphorylation at Y1016, EC50” value with human c-Ret lay in the range of 0.008 to 0.015 µg/mL. The EC50 in test [1] is 600 pM. In test [2], the Kd turned out to be 29 pM, the koff came out at 9e-05 s⁻¹ and the kon stood at 3.8e+06 M⁻¹ s⁻¹. Further, in test [3], the Kd was 44 pM, the koff was 0.00024 s⁻¹ and the kon amounted to 5.6e+06 M⁻¹ s⁻¹.

B2: CHO-Δ31-N38Q-D95E-GDNF (SEQ ID NO: 9) (ligand)
chain: B1 chain with N7Q, D64E
modifications: N-glycosylated at N49 (numbering of mature GDNF)
notes: Expressed in CHO cells; also called CHO-Δ31-N38Q-D95E-GDNFv; GDNF variant 2
For B2, the “c-Ret phosphorylation at Y1016, EC50” value with human c-Ret lay in the range of 0.008 to 0.015 µg/mL. Also, the EC50 in test [1] turned out to be 800 pM. Besides, in test [2], the Kd was found to be 30 pM, the koff came out at 0.00011 s⁻¹ and the kon is 4.5e+06 M⁻¹ s⁻¹. Further, in test [3], the Kd was 20 pM, the koff came to 0.00019 s⁻¹ and the on-rate (kon) came out at 9.4e+06 M⁻¹ s⁻¹.

The values above are taken from patent US20130324474A1 (Eli Lilly, published 2013).
